To fix the notation:
B3: huIL-15Rβ-6His (receptor, human, UniProt P14784 27-239, looked up)
chain: AVNGTSQFTCFYNSRANISCVWSQDGALQDTSCQVHAWPDRRRWNQTCELLPVSQASWACNLILGAPDSQKLTTVDIVTLRVLCREGVRWRVMAIQDFKPFENLRLMAPISLQVVHVETHRCNISWEISQASHYFERHLEFEARTLSPGHTWEEAPLLTLKQKQEWICLETLTPDTQYEFQVRVKPLQGEFTTWSPWSQPLAFRTKPAALGKD
notes: Coated on the ELISA plate; also called IL-15Rβ subunit; huIL-15R/3-6His (so in the source); not shown: 6His tag per the name

Assay [1] deals with B3. Put plainly: ELISA EC50 against P-0153 (IL-15 wild type). As to the method:
(§1) The binding activity was tested in ELISA assay. Briefly, Nunc Maxisorp (ThermoFisher) plates were coated overnight at 4° C. with huIL-15R/3-6His at 1 μg/well (100 μl/well) in bicarbonate buffer pH 9.4 (ThermoFisher). After washing 3 times with PBS/0.05% Tween20, plates were incubated with SuperBlock (300 μl/well) at room temperature for 2 hrs. to block nonspecific binding. After washing, IL-15 compounds each at 3-fold serial dilutions with blocking buffer were added to the plates (100 μl/well) and incubated at room temperature for 1 hr. After washing, the Fc fusions were detected by 1 hr. incubation at room temperature with a goat anti-human IgG Fc secondary antibody conjugated with horseradish peroxidase (HRP) at 1:5000 dilution in blocking buffer (ThermoFisher) (100 μl/well). After washing, TMB substrate (ThermoFisher) was added (100 ul/well). Plates were sealed and incubated 5-20 min at room temperature in dark. Reaction was stopped by adding 2N sulfuric acid (Ricca Chemical) (50 uL/well) and absorbance was read at 450-590 nm.
(§2) The IL-15 variants have amino acid deletion, insertion or point mutations introduced in the human IL-15 peptide. […]

In assay [2] the target is B3. Nature of the assay: ELISA, huIL-15Rβ-6His coated, anti-human IgG Fc-HRP detection. Here is the method: as §1, §2
Assay [3] has as its target P-0313, C-terminal bivalent IL-15 S58D/IL-15Rα (non-covalent) Fc fusion protein (human, UniProt Q13261 31-107). Put plainly: ELISA.

Three molecules from patent US20230048046A1 (CUGENE, published 2023) can be followed below.

B1: P-0176, IL-15i1 (GS insertion after N95) in IL-15/IL-15Rα heterodimeric Fc fusion format (Fc fusion)
chain 1: DKTHTCPPCPAPEAAGAPSVFLFPPKPKDTLMISRTPEVTCVVVDVSHEDPEVKFNWYVDGVEVHNAKTKPREEQYNSTYRVVSVLTVLHQDWLNGKEYKCKVSNKALPAPIEKTISKAKGQPREPQVYTLPPCREEMTKNQVSLSCAVKGFYPSDIAVEWESNGQPENNYKTTPPVLDSDGSFFLVSKLTVDKSRWQQGNVFSCSVMHEALHNHYTQKSLSLSPGEPKSSDKTHTSPPSPNWVNVISDLKKIEDLIQSMHIDATLYTESDVHPSCKVTAMKCFLLELQVISLESGDASIHDTVENLIILANNSLSSNGNVTESGCKECEELEEKNGSIKEFLQSFVHIVQMFINTS
chain 2: DKTHTCPPCPAPEAAGAPSVFLFPPKPKDTLMISRTPEVTCVVVDVSHEDPEVKFNWYVDGVEVHNAKTKPREEQYNSTYRVVSVLTVLHQDWLNGKEYKCKVSNKALPAPIEKTISKAKGQPREPQVCTLPPSREEMTKNQVSLWCLVKGFYPSDIAVEWESNGQPENNYKTTPPVLDSDGSFFLYSKLTVDKSRWQQGNVFSCSVMHEALHNHYTQKSLSLSPGEPKSSDKTHTSPPSPITCPPPMSVEHADIWVKSYSLYSRERYICNSGFKRKAGTSSLTECVLNKATNVAHWTTPSLKCIRDPALVHQRPAPP
B1 yielded a Fold change with huIL-15Rβ-6His [1] of 16 fold. This molecule also had an EC50 in the assay with huIL-15Rβ-6His [2] of 10.2 nM.

B2: P-0177, IL-15i2 (GGSGG insertion after N95) in IL-15/IL-15Rα heterodimeric Fc fusion format (Fc fusion)
chain 1: DKTHTCPPCPAPEAAGAPSVFLFPPKPKDTLMISRTPEVTCVVVDVSHEDPEVKFNWYVDGVEVHNAKTKPREEQYNSTYRVVSVLTVLHQDWLNGKEYKCKVSNKALPAPIEKTISKAKGQPREPQVYTLPPCREEMTKNQVSLSCAVKGFYPSDIAVEWESNGQPENNYKTTPPVLDSDGSFFLVSKLTVDKSRWQQGNVFSCSVMHEALHNHYTQKSLSLSPGEPKSSDKTHTSPPSPNWVNVISDLKKIEDLIQSMHIDATLYTESDVHPSCKVTAMKCFLLELQVISLESGDASIHDTVENLIILANNSLSSNGNVTESGCKECEELEEKNGGSGGIKEFLQSFVHIVQMFINTS
chain 2: DKTHTCPPCPAPEAAGAPSVFLFPPKPKDTLMISRTPEVTCVVVDVSHEDPEVKFNWYVDGVEVHNAKTKPREEQYNSTYRVVSVLTVLHQDWLNGKEYKCKVSNKALPAPIEKTISKAKGQPREPQVCTLPPSREEMTKNQVSLWCLVKGFYPSDIAVEWESNGQPENNYKTTPPVLDSDGSFFLYSKLTVDKSRWQQGNVFSCSVMHEALHNHYTQKSLSLSPGEPKSSDKTHTSPPSPITCPPPMSVEHADIWVKSYSLYSRERYICNSGFKRKAGTSSLTECVLNKATNVAHWTTPSLKCIRDPALVHQRPAPP
For B2, the Fold change with huIL-15Rβ-6His [1] came to 59 fold. Besides, in the assay with huIL-15Rβ-6His [2], a half-maximal response (EC50) required 38 nM.
Regarding B3, in assay [3], the binding result is on record as “binds”.
